The supplement of paper PMC10567573
± gives the standard deviation.

Test: protein stability index of a GFP-peptide fusion (GPS, HEK-293T) (PSI 1-6); higher = more stable
Conditions: c terminus: a fixed tail appended
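Also: 24-mer peptide tiles fused after GFP, lentivirally expressed, FACS-sorted into six equal bins by GFP/DsRed ratio, decoded by Illumina sequencing, PSI is the read-weighted mean bin number.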

Sequence	protein stability index (treatment: DMSO)	protein stability index (treatment: MLN4924 1 uM, 8 h)
WRGNGINVLKIAPESAIKFMAYEQ [SLC25A25]	2.19 ± 0.29	2.36 ± 0.19
DKTPVLLTDYPVDLDEIAYFTWAS [MYORG]	2.64 ± 0.36	2.86 ± 0.4
AFTEYVHAYFRGHSPSCLARVTGE [FCHO1]	2.1 ± 0.28	2.22 ± 0.25
DGVKESTESSNTTIEDEDVKARKQ [CAMK2D]	5.59 ± 0.15	5.74 ± 0.09
SVSVWDLAAPSLHVKEQLPCAGLN [TLE6]	2.91 ± 0.2	3.08 ± 0.3
EPQGLGYWEAWRHHCQGKDLTEWV [SPACA3]	3.85 ± 0.2	3.8 ± 0.45
FSEIRETSAKVNWMPPPSRADSFK [TNXB]	3.58 ± 0.31	3.88 ± 0.37
SNKKMLLLVGGLPPGPDRLPSNLV [KLHL14]	2.17 ± 0.19	2.34 ± 0.22
GGMNHSAFPQTPFKTGNSTATCTT [KCNA3]	4.27 ± 0.24	4.4 ± 0.4
GSSDHSVIMWDIGGRKGTAIELQG [WDFY2]	2.84 ± 0.43	2.83 ± 0.2
AGTPGYLSPEVLRKEAYGKPVDIW [CAMK2B]	3.29 ± 0.15	3.31 ± 0.14
EQVFLYENARSGAEAEPEDQDEGE [ZBED1]	5.7 ± 0.25	5.52 ± 0.4
QGAKERAHQQKKHSGFEDELSEVL [CHGA]	5.23 ± 0.25	5.27 ± 0.23
RKEGIVKLKPHEEPLRSEILSGKF [PTPN9]	4.16 ± 0.13	4.08 ± 0.14
IKVKPKRVGIFLDYEAGTLSFYNV [TRIM39]	2.54 ± 0.54	2.61 ± 0.48
LVCHVMMGNLVMFRKDSVLNILIQ [INTS3]	3.25 ± 0.47	3.33 ± 0.51
QAELQELEERLQLQFEAEMARLQE [MTUS2]	4.78 ± 0.38	4.72 ± 0.29
ELFDKLSLRFNGRVLFIKDVIGDE [KCTD10]	2.08 ± 0.22	2.82 ± 0.59
DKEGPSPKVEYVWRNIILMSLLHL [SCD]	3.11 ± 0.69	3.12 ± 0.4
YNPSFEDHQTLLSAAHEVELQRQK [NOP53]	4.19 ± 0.56	4.35 ± 0.44
PPKAPPPVIKIPECPSMGTNEAAC [RHOBTB1]	4.71 ± 0.23	4.86 ± 0.2
ALSKHFIPYNAKFLGSTEVEQPKG [GULP1]	3.19 ± 0.23	3.55 ± 0.2
GHPFFEGVDWEHIRERPAAIPIEI [STK38L]	2.46 ± 0.39	2.84 ± 0.38

Sequence	protein stability index (treatment: DMSO)	protein stability index (treatment: MLN4924 1 uM, 8 h)
SHDPQSSRGSRRRRRQRSEKKKAH [KCNA4]	5.38 ± 0.53	5.38 ± 0.23
EKELISMECYDIYSKTWTKQPDLT [GAN]	3.21 ± 0.25	3.28 ± 0.36
ESVDEAGGSGPAGLRASTSDGILR [RHOBTB2]	5.14 ± 0.21	5.16 ± 0.2
DQYSYSSLVMGSQTESALSKKLRA [LCOR]	3.63 ± 0.12	3.54 ± 0.27
GVEPSPSPIKPGDIKRGIPNYEFK [UFD1]	4.25 ± 0.24	4.24 ± 0.24
NNCAFLESSAKSKINVNEIFYDLV [RAP1B]	2.44 ± 0.45	2.07 ± 0.34
LNIKVKLEAEIATYRRLLEDGEDF [KRT18]	2.66 ± 0.2	2.5 ± 0.34
SSISHRFHKDCASRVNNASYCPHC [EHMT1]	3.48 ± 0.67	4.11 ± 0.56
DEEKQEYLNEYEAEKIEYNESMKA [SMARCE1]	5.5 ± 0.17	5.05 ± 0.36
GKVEAQHILASAPTDRNLCHFQAL [PYCR3]	2.7 ± 0.25	3.04 ± 0.31
PIGELYGLSESSGPHTISNQNNYR [ACSBG2]	3.91 ± 0.31	4.07 ± 0.57
TPGSRIESILMSLPLTARWEYMHS [CPOX]	2.33 ± 0.27	2.24 ± 0.12
FPSDHLGDLGDPFHLGLEDILMEE [TFE3]	3.82 ± 0.19	4.04 ± 0.4
QGWVREHCPESGEEAVILLEDLER [ZSCAN9]	4.36 ± 0.12	4.7 ± 0.28
WSQQIEESTTVVTTQSAEVGAAET [KRT18]	5.5 ± 0.21	5.42 ± 0.14
DNARLAVDDFRLKYENELALRQSV [KRT13]	3.92 ± 0.14	3.86 ± 0.18
NTHAKSILNSMNSLRKSNTLCDVT [KLHL12]	2.82 ± 0.4	3.27 ± 0.43
VHPIIKRRQCRPEIRMWQTREKAK [PHTF1]	3.15 ± 0.21	3.32 ± 0.13
HHRYDDLVRTLYKVQNECPGITRV [CPN1]	2.69 ± 0.34	2.67 ± 0.098
WVSHTAAMTGTFPAYGMSPSLSTI [DVL3]	2.62 ± 0.34	2.29 ± 0.26
CGERLSLGLSRAQPVQSKPQKASA [PDLIM7]	3.85 ± 0.38	4.06 ± 0.33
LKFDAYFQEDVPMSTEEQYRIRQV [EFHC1]	3.44 ± 0.14	3.46 ± 0.28
KKMESEEDSNWEKSPDNEDSGDSK [GOLPH3L]	5.63 ± 0.23	5.59 ± 0.26

Sequence	protein stability index (treatment: DMSO)	protein stability index (treatment: MLN4924 1 uM, 8 h)
PISLQATPATPATLSASSSAGGSR [TFE3]	4.51 ± 0.18	4.87 ± 0.11
CRKWNQMMYSAELWRYRTITFSGR [FBXO39]	2.41 ± 0.28	2.15 ± 0.37
QWQDLMSIMEMQAMEVNTSASEIL [NFE2L1]	2.88 ± 0.45	2.86 ± 0.4
LSWYFLLCVNYFFYGETVADYFAT [CDS1]	3.11 ± 0.46	3.51 ± 0.53
DGAAYIGNFDWVGNDFTQNAGTGL [PLD5]	3.3 ± 0.49	3.44 ± 0.14
GAVVLGAESHASKDVAIDMMDSRT [STX5]	4.67 ± 0.2	4.64 ± 0.44
DKQRKANESKGTRESWDSAKKLPP [ELOA2]	5.11 ± 0.19	5.06 ± 0.19
SQLDEDEHGLHTKYIHRMMQIEFI [TRAF3IP2]	2.44 ± 0.1	2.56 ± 0.34
KLSARDHQKLEREARICRLLKHSN [CAMK2B]	3.16 ± 0.47	3.52 ± 0.17
GGYFKAHIKFPIDYPYSPPTFRFL [UBE2R2]	2.61 ± 0.96	2.71 ± 0.52
NEHKSCEEKSVKNTSIRVADFGSA [CLK3]	4.89 ± 0.16	5.03 ± 0.14
SALEEAFRRFAVHGDARATGREMH [TPPP]	3.22 ± 0.38	3.12 ± 0.12
LFFVPCIFLYARPNSTFPIDKSMT [OR4A15]	3.15 ± 0.51	3.43 ± 1.4
EGSYRIHVLHHGTGKWYELQDLQV [USP39]	2.73 ± 0.69	2.58 ± 0.77
HQRKHAGEKPFECRQRLIFEQTPA [ZNF8]	3.65 ± 0.2	3.64 ± 0.16
KWMERYLRDKTVMIIVAISPKYKQ [TRAF3IP2]	2.65 ± 0.97	2.44 ± 0.34
LIRLFWTWHDERFLYMLMEYVPGG [PRKX]	2.59 ± 0.47	2.48 ± 0.35
EAHFMLQVADINDNPPTFSQVSYF [PCDHGA10]	2.34 ± 0.41	2.33 ± 0.25
RDPFECNMCGYHSQDRYEFSSHIT [IKZF1]	2.33 ± 0.4	2.33 ± 0.59
ETFLSFLEYLYTDSCCPAGIFQAM [RHOBTB3]	2.96 ± 0.48	2.56 ± 0.35
IATYRSLLEGQDAKMAGIGIREAS [KRT15]	3.09 ± 0.23	3.25 ± 0.1
SKAPVLTYGQPKQAPPADFIPAHV [EFHC1]	3.93 ± 0.18	4.1 ± 0.25
QSAQIACSSPSVVASLPLDQSDEG [MAGEA10]	5.5 ± 0.45	5.236 ± 0.029

Sequence	protein stability index (treatment: DMSO)	protein stability index (treatment: MLN4924 1 uM, 8 h)
MSLFSLYMVQDQHECILPFVQVKG [M1AP]	2.43 ± 0.54	2.14 ± 0.56
FYMEEGVPYCERDYEKMFGTKCHG [PDLIM7]	2.78 ± 0.4	3.19 ± 0.31
LTFGPDSRHCPQLPPPCAALWCSG [ADAMTS4]	2.29 ± 0.36	2.46 ± 0.32
EVTLEANPTSAPGSRLAEFGAAGV [RSAD1]	4.21 ± 0.13	4.25 ± 0.24
NILEKEVLPPIHAYGNRTECRNPQ [FEM1B]	4.03 ± 0.079	4.18 ± 0.11
SRPQSSRPVLLSKIEGHQDAVTAA [WDFY1]	4.28 ± 0.33	4.3 ± 0.35
RRGIGGIFFDDLDSPSKEEVFRFV [CPOX]	2.28 ± 0.2	2.64 ± 0.27
VLMLLVALLFTGIAVLGIVMLKRI [SCAMP3]	2.85 ± 0.63	3.02 ± 0.73
LREKVEFLRSLRQMKQKVQSLYQE [NFE2L1]	2.09 ± 0.58	2.82 ± 0.52
LLPNQSHGNQSAGEDQAFGDWLLT [SLC22A15]	4.14 ± 0.35	4.24 ± 0.18
YLSCLEELMKCQIIYPRQQLLTLR [TRIP13]	2.68 ± 0.68	2.69 ± 0.36
IRKYNYVAMDTEFPGVVARPIGEF [CNOT7]	2.21 ± 0.19	2.16 ± 0.2
VAHCHQSAIVLGDLKLRKFVFSTE [TRIB1]	2.25 ± 0.36	2.36 ± 0.63
RRETVLFTDYGLAALAVNTSILSR [RNF208]	2.09 ± 0.43	2.12 ± 0.18
WLSSRAAAIKVNDSVPFHLGWNST [MYORG]	1.99 ± 0.23	2.19 ± 0.38
RRFNENAADRHINFCKEQAARISN [ZC2HC1A]	2.56 ± 0.17	2.51 ± 0.39
FLGHHSFSVRPGTEATISIREDEV [SCNN1D]	2.42 ± 0.64	3.12 ± 0.52
TVPEILVHNIVIFMRTSVKISYIG [TMEM106C]	3.01 ± 0.38	3.11 ± 0.29
QQRLAHLEDKLRLLAQARDEAQGA [LRRC45]	4.29 ± 0.28	4.37 ± 0.36
LGLSLTNGLALGPDLNILEDSAES [PSD2]	4.56 ± 0.15	4.78 ± 0.31
